Laboratory results from article PMC5583172 (2017).
Where no end group is shown, it is not given here. [ ]: non-standard residue; d: D form. The star is where a group is joined. NMeF = CN[C@@H](Cc1ccccc1)C(=O)O; NHCH2CH2OH = OCCN*

Experiments:
[1] = target: mu opioid receptor (MOR) of wild type mouse brain (mouse (endogenous in brain), UniProt P42866 1-398)
[2] = target: human mu opioid receptor (MOR), stably expressed in HEK293 cells with GloSensor (human, UniProt P35372 1-400)
Sequence of human mu opioid receptor (MOR), stably expressed in HEK293 cells with GloSensor (P35372 whole entry): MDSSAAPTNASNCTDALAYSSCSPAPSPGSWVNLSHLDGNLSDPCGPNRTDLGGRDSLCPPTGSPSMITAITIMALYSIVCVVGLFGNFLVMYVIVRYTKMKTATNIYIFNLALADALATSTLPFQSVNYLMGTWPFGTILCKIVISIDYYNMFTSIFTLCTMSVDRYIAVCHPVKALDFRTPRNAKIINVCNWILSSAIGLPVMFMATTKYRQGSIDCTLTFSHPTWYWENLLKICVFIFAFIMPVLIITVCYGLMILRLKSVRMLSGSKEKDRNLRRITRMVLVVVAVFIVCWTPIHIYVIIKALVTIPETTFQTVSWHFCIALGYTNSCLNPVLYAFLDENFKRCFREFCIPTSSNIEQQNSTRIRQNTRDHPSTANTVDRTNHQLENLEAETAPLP

Sequence of mu opioid receptor (MOR) of wild type mouse brain (P42866 whole entry): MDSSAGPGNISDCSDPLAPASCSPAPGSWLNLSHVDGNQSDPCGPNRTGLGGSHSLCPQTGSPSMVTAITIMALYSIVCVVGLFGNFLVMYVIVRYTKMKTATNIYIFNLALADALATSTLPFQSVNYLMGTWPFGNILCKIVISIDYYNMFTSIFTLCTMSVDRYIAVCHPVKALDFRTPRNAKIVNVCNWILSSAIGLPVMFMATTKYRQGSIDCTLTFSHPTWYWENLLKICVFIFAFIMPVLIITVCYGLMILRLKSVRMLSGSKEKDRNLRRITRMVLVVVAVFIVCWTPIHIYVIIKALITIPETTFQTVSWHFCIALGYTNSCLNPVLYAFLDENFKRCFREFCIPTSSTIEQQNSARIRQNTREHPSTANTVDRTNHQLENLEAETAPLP

B1: DAMGO ([D-Ala2, N-MePhe4, Gly-ol]-enkephalin) (peptide)
chain: Y[dA]G[NMeF][NHCH2CH2OH]
Ki [1]: 3.1 nM | Ki [2]: 9.6 nM
